*: point of attachment. Biotin = O=C1N[C@H]2[C@H](CS[C@H]2CCCCC(=O)*)N1; TTDS = Trioxatridecan-succinamic acid linker
B1: HA-WDHD1, full length, NPF motif mutated to KAF (natural protein, human, UniProt O75717 1-1129, looked up)
chain: MPATRKPMRYGHTEGHTEVCFDDSGSFIVTCGSDGDVRIWEDLDDDDPKFINVGEKAYSCALKSGKLVTAVSNNTIQVHTFPEGVPDGILTRFTTNANHVVFNGDGTKIAAGSSDFLVKIVDVMDSSQQKTFRGHDAPVLSLSFDPKDIFLASASCDGSVRVWQISDQTCAISWPLLQKCNDVINAKSICRLAWQPKSGKLLAIPVEKSVKLYRRESWSHQFDLSDNFISQTLNIVTWSPCGQYLAAGSINGLIIVWNVETKDCMERVKHEKGYAICGLAWHPTCGRISYTDAEGNLGLLENVCDPSGKTSSSKVSSRVEKDYNDLFDGDDMSNAGDFLNDNAVEIPSFSKGIINDDEDDEDLMMASGRPRQRSHILEDDENSVDISMLKTGSSLLKEEEEDGQEGSIHNLPLVTSQRPFYDGPMPTPRQKPFQSGSTPLHLTHRFMVWNSIGIIRCYNDEQDNAIDVEFHDTSIHHATHLSNTLNYTIADLSHEAILLACESTDELASKLHCLHFSSWDSSKEWIIDLPQNEDIEAICLGQGWAAAATSALLLRLFTIGGVQKEVFSLAGPVVSMAGHGEQLFIVYHRGTGFDGDQCLGVQLLELGKKKKQILHGDPLPLTRKSYLAWIGFSAEGTPCYVDSEGIVRMLNRGLGNTWTPICNTREHCKGKSDHYWVVGIHENPQQLRCIPCKGSRFPPTLPRPAVAILSFKLPYCQIATEKGQMEEQFWRSVIFHNHLDYLAKNGYEYEESTKNQATKEQQELLMKMLALSCKLEREFRCVELADLMTQNAVNLAIKYASRSRKLILAQKLSELAVEKAAELTATQVEEEEEEEDFRKKLNAGYSNTATEWSQPRFRNQVEEDAEDSGEADDEEKPEIHKPGQNSFSKSTNSSDVSAKSGAVTFSSQGRVKAFKVSASSKEPAMSMNSARSTNILDNMGKSSKKSTALSRTTNNEKSPIIKPLIPKPKPKQASAASYFQKRNSQTNKTEEVKEENLKNVLSETPAICPPQNTENQRPKTGFQMWLEENRSNILSDNPDFSDEADIIKEGMIRFRVLSTEERKVWANKAKGETASEGTEAKKRKRVVDESDETENQEEKAKENLNLSKKQKPLDFSTNQKLSAFAFKQE
notes: WDHD1, residues 1-1129; also called WDHD1 mutant; source: HEK293T, transfected, in cell extract; not shown: HA, N-terminal, kept
B2: DONSON-SYNJ1 chimera peptide, N-terminal flank replaced (peptide)
chain: GPAATRTNPFARLDNRPR
HELM: PEPTIDE1{[O=C1N[C@H]2[C@H](CS[C@H]2CCCCC(=O)[*:2])N1].[O=C(CCCCCN[*:1])[*:2]].G.P.A.A.T.R.T.N.P.F.A.R.L.D.N.R.P.R.[am]}$$$$V2.0
SMILES: CC(C)C[C@H](NC(=O)[C@H](CCCNC(=N)N)NC(=O)[C@H](C)NC(=O)[C@H](Cc1ccccc1)NC(=O)[C@@H]1CCCN1C(=O)[C@H](CC(N)=O)NC(=O)[C@@H](NC(=O)[C@H](CCCNC(=N)N)NC(=O)[C@@H](NC(=O)[C@H](C)NC(=O)[C@H](C)NC(=O)[C@@H]1CCCN1C(=O)CNC(=O)CCCCCNC(=O)CCCC[C@@H]1SC[C@@H]2NC(=O)N[C@@H]21)[C@@H](C)O)[C@@H](C)O)C(=O)N[C@@H](CC(=O)O)C(=O)N[C@@H](CC(N)=O)C(=O)N[C@@H](CCCNC(=N)N)C(=O)N1CCC[C@H]1C(=O)N[C@@H](CCCNC(=N)N)C(N)=O
B3: NPF motif peptide of SYNJ1 (residues 1390-1421) (peptide)
peptide: RSSPNPFITGLTRTNPFSDRTAAPGNPFRAKS
HELM: PEPTIDE1{[O=C1N[C@H]2[C@H](CS[C@H]2CCCCC(=O)[*:2])N1].[O=C(CCCCCN[*:1])[*:2]].R.S.S.P.N.P.F.I.T.G.L.T.R.T.N.P.F.S.D.R.T.A.A.P.G.N.P.F.R.A.K.S.[am]}$$$$V2.0
SMILES: CC[C@H](C)[C@H](NC(=O)[C@H](Cc1ccccc1)NC(=O)[C@@H]1CCCN1C(=O)[C@H](CC(N)=O)NC(=O)[C@@H]1CCCN1C(=O)[C@H](CO)NC(=O)[C@H](CO)NC(=O)[C@H](CCCNC(=N)N)NC(=O)CCCCCNC(=O)CCCC[C@@H]1SC[C@@H]2NC(=O)N[C@@H]21)C(=O)N[C@H](C(=O)NCC(=O)N[C@@H](CC(C)C)C(=O)N[C@H](C(=O)N[C@@H](CCCNC(=N)N)C(=O)N[C@H](C(=O)N[C@@H](CC(N)=O)C(=O)N1CCC[C@H]1C(=O)N[C@@H](Cc1ccccc1)C(=O)N[C@@H](CO)C(=O)N[C@@H](CC(=O)O)C(=O)N[C@@H](CCCNC(=N)N)C(=O)N[C@H](C(=O)N[C@@H](C)C(=O)N[C@@H](C)C(=O)N1CCC[C@H]1C(=O)NCC(=O)N[C@@H](CC(N)=O)C(=O)N1CCC[C@H]1C(=O)N[C@@H](Cc1ccccc1)C(=O)N[C@@H](CCCNC(=N)N)C(=O)N[C@@H](C)C(=O)N[C@@H](CCCCN)C(=O)N[C@@H](CO)C(N)=O)[C@@H](C)O)[C@@H](C)O)[C@@H](C)O)[C@@H](C)O
notes: SYNJ1, residues 1390-1421, contains three NPF motifs; also called SYNJ1_1390-1421; triple motif of SYNJ1; source: synthetic peptide; bought: Synpeptide
B4: DONSON-SYNJ1 chimera peptide, C-terminal flank replaced (peptide)
chain: GPAAARRNPFSDRDNRPR
HELM: PEPTIDE1{[O=C1N[C@H]2[C@H](CS[C@H]2CCCCC(=O)[*:2])N1].[O=C(CCCCCN[*:1])[*:2]].G.P.A.A.A.R.R.N.P.F.S.D.R.D.N.R.P.R.[am]}$$$$V2.0
SMILES: C[C@H](NC(=O)[C@H](C)NC(=O)[C@@H]1CCCN1C(=O)CNC(=O)CCCCCNC(=O)CCCC[C@@H]1SC[C@@H]2NC(=O)N[C@@H]21)C(=O)N[C@@H](C)C(=O)N[C@@H](CCCNC(=N)N)C(=O)N[C@@H](CCCNC(=N)N)C(=O)N[C@@H](CC(N)=O)C(=O)N1CCC[C@H]1C(=O)N[C@@H](Cc1ccccc1)C(=O)N[C@@H](CO)C(=O)N[C@@H](CC(=O)O)C(=O)N[C@@H](CCCNC(=N)N)C(=O)N[C@@H](CC(=O)O)C(=O)N[C@@H](CC(N)=O)C(=O)N[C@@H](CCCNC(=N)N)C(=O)N1CCC[C@H]1C(=O)N[C@@H](CCCNC(=N)N)C(N)=O
B5: DONSON-SYNJ1 chimera peptide, both flanks replaced (peptide)
chain: GPAATRTNPFSDRDNRPR
HELM: PEPTIDE1{[O=C1N[C@H]2[C@H](CS[C@H]2CCCCC(=O)[*:2])N1].[O=C(CCCCCN[*:1])[*:2]].G.P.A.A.T.R.T.N.P.F.S.D.R.D.N.R.P.R.[am]}$$$$V2.0
SMILES: C[C@H](NC(=O)[C@H](C)NC(=O)[C@@H]1CCCN1C(=O)CNC(=O)CCCCCNC(=O)CCCC[C@@H]1SC[C@@H]2NC(=O)N[C@@H]21)C(=O)N[C@H](C(=O)N[C@@H](CCCNC(=N)N)C(=O)N[C@H](C(=O)N[C@@H](CC(N)=O)C(=O)N1CCC[C@H]1C(=O)N[C@@H](Cc1ccccc1)C(=O)N[C@@H](CO)C(=O)N[C@@H](CC(=O)O)C(=O)N[C@@H](CCCNC(=N)N)C(=O)N[C@@H](CC(=O)O)C(=O)N[C@@H](CC(N)=O)C(=O)N[C@@H](CCCNC(=N)N)C(=O)N1CCC[C@H]1C(=O)N[C@@H](CCCNC(=N)N)C(N)=O)[C@@H](C)O)[C@@H](C)O
B6: NPF motif peptide of DONSON (residues 71-88) (peptide)
peptide: {Biotin-TTDS}-GPAAARRNPFARLDNRPR-NH2
notes: Protein downstream neighbor of Son (DONSON), residues 71-88; also called DONSON_71-88; DONSON_718-88 (as printed in the sheet); source: synthetic peptide (ABI 443 A synthesizer, Fmoc strategy)

What was measured:
[1] = target: T1, His6-AviTag-MBP-TEV-POLE2 (human, UniProt P56282 1-527, biotin on the AviTag (BirA co-expressed, biotin in the medium)); assay: native holdup (nHU) titration with dot blot; purified His6-avi-MBP-tagged POLE2 as bait on resin; extracts of HEK293T cells transfected with HA-tagged full length proteins; 4 °C, 2 h; anti-HA dot blot; apparent; details: one partner purified
T1 construct: POLE2, residues 1-527; a TEV site lies between MBP and POLE2; also called His6-avi-MBP-tagged POLE2; avi-His6-MBP-POLE2; source: E. coli BL21(DE3), co-expressed with BirA, purified (HisTrap, MBPtrap, Q HP); not shown: His6, N-terminal, kept; AviTag, N-terminal, kept; MBP, N-terminal, kept
T1 sequence (P56282 whole entry, the tested form may be a part): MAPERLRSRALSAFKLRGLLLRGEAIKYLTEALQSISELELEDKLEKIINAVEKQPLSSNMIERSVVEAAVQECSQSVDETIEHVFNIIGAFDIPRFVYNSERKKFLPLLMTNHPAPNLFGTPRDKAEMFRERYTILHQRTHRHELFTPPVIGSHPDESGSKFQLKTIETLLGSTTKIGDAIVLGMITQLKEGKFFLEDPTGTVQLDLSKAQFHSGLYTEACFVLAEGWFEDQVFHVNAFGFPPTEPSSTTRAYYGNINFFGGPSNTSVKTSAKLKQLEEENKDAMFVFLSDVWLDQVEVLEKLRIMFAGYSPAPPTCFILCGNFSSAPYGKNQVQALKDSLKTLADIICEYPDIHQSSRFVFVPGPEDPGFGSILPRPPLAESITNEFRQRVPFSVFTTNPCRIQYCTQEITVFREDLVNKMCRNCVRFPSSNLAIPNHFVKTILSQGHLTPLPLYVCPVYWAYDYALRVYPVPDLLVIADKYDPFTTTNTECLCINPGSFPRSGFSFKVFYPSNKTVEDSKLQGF

EPS15 = target: T2, EPS15 (human (endogenous in Jurkat), UniProt P42566 1-896); assay: native holdup (nHU) titration with western blot; biotinylated peptide bait on streptavidin resin, bait-saturated and control (biotin) resin mixed at various proportions; total Jurkat extract as analyte; 4 °C, 2 h; endogenous POLE and EPS15 left in the supernatant quantified by western blot; apparent dissociation constants; details: one partner purified
T2 construct: EPS15, EH protein with three EH domains, endogenous in Jurkat E6.1 extract, detected by western blot with an EPS15 antibody; also called endogenous EPS15; EH protein with three EH domains; source: endogenous, total Jurkat extract
T2 sequence (looked up): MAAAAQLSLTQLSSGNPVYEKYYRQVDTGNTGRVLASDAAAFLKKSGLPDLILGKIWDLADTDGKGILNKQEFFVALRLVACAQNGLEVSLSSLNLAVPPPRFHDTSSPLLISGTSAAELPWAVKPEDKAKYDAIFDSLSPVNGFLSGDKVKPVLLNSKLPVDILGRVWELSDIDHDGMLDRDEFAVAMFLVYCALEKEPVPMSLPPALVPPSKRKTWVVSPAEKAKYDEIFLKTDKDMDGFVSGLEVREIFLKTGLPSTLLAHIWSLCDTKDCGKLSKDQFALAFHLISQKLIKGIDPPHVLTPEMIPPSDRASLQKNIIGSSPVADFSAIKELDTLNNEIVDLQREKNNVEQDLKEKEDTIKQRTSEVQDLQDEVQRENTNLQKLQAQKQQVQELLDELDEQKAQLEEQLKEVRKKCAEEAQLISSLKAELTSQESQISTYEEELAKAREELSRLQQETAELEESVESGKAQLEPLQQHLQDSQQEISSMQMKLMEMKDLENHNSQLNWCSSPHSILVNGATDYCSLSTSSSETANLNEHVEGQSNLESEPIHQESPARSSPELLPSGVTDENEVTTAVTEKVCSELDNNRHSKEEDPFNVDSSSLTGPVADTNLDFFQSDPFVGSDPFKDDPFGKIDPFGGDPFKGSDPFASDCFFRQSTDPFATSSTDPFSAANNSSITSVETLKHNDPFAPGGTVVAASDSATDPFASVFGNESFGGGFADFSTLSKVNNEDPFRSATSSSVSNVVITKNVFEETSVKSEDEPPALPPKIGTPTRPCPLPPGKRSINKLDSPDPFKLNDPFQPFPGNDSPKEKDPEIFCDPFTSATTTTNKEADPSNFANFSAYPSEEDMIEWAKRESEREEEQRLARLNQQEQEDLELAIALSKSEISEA

Binder | fold weaker affinity than the wild type [1] | Kd (EPS15)
B1 | 1000 fold | 
B2 |  | > 30 µM
B3 |  | 1 µM
B4 |  | > 20 µM
B5 |  | > 200 µM
B6 |  | > 60 µM

— PMC12808100 (Nature Communications, 2025)
